B1: monomeric [3H]LOS·sCD14 complex (endotoxin·CD14) (natural protein, UniProt P08571 20-345, looked up)
chain: TTPEPCELDDEDFRCVCNFSEPQPDWSEAFQCVSAVEVEIHAGGLNLEPFLKRVDADADPRQYADTVKALRVRRLTVGAAQVPAQLLVGALRVLAYSRLKELTLEDLKITGTMPPLPLEATGLALSSLRLRNVSWATGRSWLAELQQWLKPGLKVLSIAQAHSPAFSCEQVRAFPALTSLDLSDNPGLGERGLMAALCPHKFPAIQNLALRNTGMETPTGVCAALAAAGVQPHSLDLSHNSLRATVNPSAPRCMWSSALNSLNLSFAGLEQVPKGLPAKLRVLDLSCNRLNRAPQPDELPEVDNLTLDGNPFLVPGTALPHEGSMN
B2: monomeric [3H]LOS·MD-2His6 complex (endotoxin·MD-2) (natural protein)
chain: QKQYWVCNSSDASISYTYCDKMQYPISINVNPCIELKRSKGLLHIFYIPRRDLKQLYFNLYITVNTMNLPKRKEVICRGSDDDYSFCRALKGETVNTTISFSFKGIKFSKGKYKCVVEAISGSPEEMLFCLEFVILHQPNSN

What was measured:
Test in all cases: radioligand binding
[1] = biological target: MD-2Flag.His6/FlagTLR4ecd D299G.T399I complex (human, UniProt Q9Y6Y9 19-160; O00206 24-631, D299G | T399I)
[2] = biological target: MD-2Flag.His6/FlagTLR4ecd (wild type) complex (human, UniProt Q9Y6Y9 19-160; O00206 24-631)
[3] = biological target: FlagTLR4ecd, wild type (extracellular domain of human TLR4, residues 24-631) (human, UniProt O00206 24-631)
[4] = biological target: full-length D299G.T399I TLR4 expressed on HEK293T cells without MD-2 (human, UniProt O00206 24-839, D299G | T399I)
full-length D299G.T399I TLR4 expressed on HEK293T cells without MD-2, sequence (O00206 24-839 D299G/T399I): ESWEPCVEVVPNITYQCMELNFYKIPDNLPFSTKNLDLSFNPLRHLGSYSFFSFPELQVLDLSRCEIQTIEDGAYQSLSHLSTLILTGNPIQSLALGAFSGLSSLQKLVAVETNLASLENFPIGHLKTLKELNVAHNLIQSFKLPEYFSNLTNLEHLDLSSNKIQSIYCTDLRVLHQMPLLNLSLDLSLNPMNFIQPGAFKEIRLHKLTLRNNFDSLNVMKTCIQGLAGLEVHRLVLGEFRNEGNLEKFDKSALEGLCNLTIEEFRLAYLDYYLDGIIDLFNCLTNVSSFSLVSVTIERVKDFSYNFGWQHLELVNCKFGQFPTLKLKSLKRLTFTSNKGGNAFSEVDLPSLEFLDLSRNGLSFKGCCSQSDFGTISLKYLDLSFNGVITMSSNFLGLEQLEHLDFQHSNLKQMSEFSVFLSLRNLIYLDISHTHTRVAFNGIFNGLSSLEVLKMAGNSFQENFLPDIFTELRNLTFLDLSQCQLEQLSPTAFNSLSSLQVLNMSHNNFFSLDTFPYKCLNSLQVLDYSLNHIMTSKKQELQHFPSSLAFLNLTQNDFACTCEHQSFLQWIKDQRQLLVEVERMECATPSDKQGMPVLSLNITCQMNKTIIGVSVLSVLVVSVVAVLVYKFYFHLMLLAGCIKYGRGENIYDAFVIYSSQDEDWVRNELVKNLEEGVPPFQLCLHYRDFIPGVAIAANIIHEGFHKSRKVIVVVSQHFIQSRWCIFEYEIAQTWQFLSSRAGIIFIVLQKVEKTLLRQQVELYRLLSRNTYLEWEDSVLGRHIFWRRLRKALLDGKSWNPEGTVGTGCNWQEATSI

MD-2Flag.His6/FlagTLR4ecd D299G.T399I complex, sequence (O00206 24-631 D299G/T399I, one chain of several): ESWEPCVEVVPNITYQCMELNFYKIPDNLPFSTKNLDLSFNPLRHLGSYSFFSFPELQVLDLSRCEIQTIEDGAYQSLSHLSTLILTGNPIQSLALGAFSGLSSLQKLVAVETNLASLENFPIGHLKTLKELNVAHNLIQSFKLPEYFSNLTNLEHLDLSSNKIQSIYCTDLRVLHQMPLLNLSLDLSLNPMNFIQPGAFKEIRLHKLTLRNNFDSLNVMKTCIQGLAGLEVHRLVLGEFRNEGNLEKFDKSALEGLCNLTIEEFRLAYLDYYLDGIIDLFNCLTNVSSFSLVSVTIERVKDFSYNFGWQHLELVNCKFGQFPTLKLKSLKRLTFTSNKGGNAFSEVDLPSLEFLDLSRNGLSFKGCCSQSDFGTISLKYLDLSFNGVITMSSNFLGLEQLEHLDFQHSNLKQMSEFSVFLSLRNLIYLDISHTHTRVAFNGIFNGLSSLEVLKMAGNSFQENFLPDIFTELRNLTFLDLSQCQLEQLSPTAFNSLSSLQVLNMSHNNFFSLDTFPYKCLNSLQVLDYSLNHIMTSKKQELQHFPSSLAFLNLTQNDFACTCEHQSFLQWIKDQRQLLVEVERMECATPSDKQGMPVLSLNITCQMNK
MD-2Flag.His6/FlagTLR4ecd (wild type) complex, sequence (O00206 24-631, one chain of several): as the sequence (O00206 24-631 D299G/T399I, one chain of several) above, with G276D, I376T counted along it
FlagTLR4ecd, wild type (extracellular domain of human TLR4, residues 24-631), sequence (O00206 24-631): as the sequence (O00206 24-631 D299G/T399I, one chain of several) above, with G276D, I376T counted along it

Row | Binder | Kd [1] [nM] | Kd [2] [nM] | Kd [3] [nM] | fold reduction of cell binding against wt TLR4 [4] [fold]
1 | B1 | 0.186 | 0.196 | – | –
2 | B2 | – | – | 0.221 ± 0.043 | ≥ 10
